{"source": "patent US11130801B2", "about": "“Method for inhibiting platelet derived growth factor signaling with C3aR or C5aR antibodies” (CASE WESTERN RESERVE UNIVERSITY, priority 2011, dated 2021)", "molecules": {"B1": {"name": "C5a: complement activation fragment (anaphylatoxin) added to cells (protein, UniProt P01031 678-751, looked up)", "C5a anaphylatoxin": "TLQKKIEEIAAKYKHSVVKKCCYDGACVNNDETCEQRAARISLGPRCIKAFTECCVVASQLRANISHKDMQLGR", "modifications": "C5a anaphylatoxin"}}, "key": {"[1]": {"tested_on": "C5aR", "assay": "Proinflammatory gene transcription induced by C5aR signaling", "type": "cell-based", "settings": "added C5a", "excerpt": "In view of the connections of MCP-1 and other proinflammatory cytokines with atherosclerosis and the mechanistic linkage of DAF deficiency with potentiated C3aR/C5aR transduction, we tested whether C5aR signaling induces proinflammatory gene transcription. Added C5a induced the mRNA transcription of chemotactic MCP-1/IL-8, proinflammatory IL-1β/IL-6 and growth inductive GM-CSF."}, "[2]": {"tested_on": "NIH-3T3 cells", "assay": "Cell cycle assay of serum starved NIH-3T3 cells (PDGF study)", "type": "cell-based", "settings": "identical to adding PDGF", "method": "(§1) Propidium iodide staining was performed as described previously […]. In brief, the cells were serum starved for 24 hrs followed by administration of 1 μM colchicine (Sigma). 16 hrs following colchicine treatment, cells were given either growth factor treatment or 17 ng/mL mC5a. After an additional 24 hrs, cells were removed from plating via Trypsin/EDTA and fixed in 0.25% Formaldehyde for 10 mins at 37° C. Cells were spun out of formaldehyde solution and resuspended in 90% methanol at 4° C. until assayed. Following removal from methanol, excess RNA was removed via treatment with RNase (Sigma) and stained with propidium iodide for 30 mins at 4° C. Cells were analyzed on an Epics XL.\nPDGF contributes to atherogenesis and plays a central role in neointimal proliferation following EC injury. […] Following determination of optimal PDGF-AA doses, we incubated 1×10^5 cells/well in triplicate with 30 ng/ml of PDGF-AA±10 ng/ml of C3aR and C5aR antagonists (C3aR-A/C5aR-A), 10 ng/ml of anti-C3a/anti-C5a mAbs or respective controls, after which we quantified cell growth by counting cell numbers over time. […] To directly establish whether C5aR signals augment PDGF-AA growth signaling, we 1) quantified the effect of added C5a one growth, and 2) assayed C5a in culture supernatants of PDGF-AA treated cells. […]"}, "[3]": {"tested_on": "NIH-3T3 cells, bEND.3 ECs, TC-1 cancer cells", "assay": "Cell cycle assay (propidium iodide staining) of serum starved cells", "type": "cell-based", "settings": "C5a added to serum starved cells; identical to EGF or VEGF-A", "method": "Because this dependence of growth factor responsiveness on C3aR/C5aR signaling could be indirect, i.e., a consequence of its requirement for viability, we performed cell cycle assays.\nas §1"}, "[4]": {"tested_on": "NIH-3T3 fibroblasts", "assay": "PDGF-AA growth induction of NIH-3T3 fibroblasts (cell counts over time)", "type": "cell-based", "settings": "added C5a by itself", "method": "PDGF contributes to atherogenesis and plays a central role in neointimal proliferation following EC injury. In view of the growth difference of primary cultured Daf1^−/−, WT, C3aR^−/−C5aR^−/−, and C3^−/−C5^−/−SMCs, we examined whether C3aR/C5aR signals are interconnected with PDGF growth induction. For these studies, we utilized NIH-3T3 fibroblasts (which express PDGFR-αα) in conjunction with PDGF-AA. Following determination of optimal PDGF-AA doses, we incubated 1×10^5 cells/well in triplicate with 30 ng/ml of PDGF-AA±10 ng/ml of C3aR and C5aR antagonists (C3aR-A/C5aR-A), 10 ng/ml of anti-C3a/anti-C5a mAbs or respective controls, after which we quantified cell growth by counting cell numbers over time. […] To directly establish whether C5aR signals augment PDGF-AA growth signaling, we 1) quantified the effect of added C5a one growth, and 2) assayed C5a in culture supernatants of PDGF-AA treated cells. […] Because the dependence of PDGF growth induction on C3aR/C5aR signaling could be indirect, i.e., a consequence of its requirement for viability, we performed cell cycle assays."}, "[5]": {"tested_on": "VEGFR2", "assay": "VEGFR2 phosphorylation immunoblot in serum starved primary WT aortic ECs", "type": "cell-based, murine", "settings": "added C5a, relative to untreated controls", "method": "FIG. 21 illustrates an immunoblot of VEGFR2 phosphorylation. C5a or VEGF-A was added to serum starved primary cultures of WT murine ECs in the absence or presence of C3aR-A/C5aR-A and VEGFR2 phosphorylation assessed by immunoblotting with anti […] mAb.\nTo directly establish whether C3aR/C5aR signaling is integral to VEGF signaling, we next evaluated phosphorylation of VEGFR2. We tested 1) how adding C5a to primary WT ECs affects VEGFR2 autophosphorylation and 2) whether VEGFR2 phosphorylation induced by added VEGF-A is affected by antagonizing C3aR/C5aR signaling. We incubated serum starved WT aortic ECs with C5a or with VEGF-A in the absence or presence of C3aR-A/C5aR-A, after which we probed immunoblots of protein lysates and anti-pVEGFR2^Y1054/1059 mAb or pan VEGFR2 antibody."}, "[6]": {"tested_on": "Raji, Jurkat, U937 cells, primary mΦs, B cells, and DCs", "assay": "AP and C5 gene transcription in leukocytes by qPCR", "type": "cell-based", "settings": "10 nM C5a", "excerpt": "ECs and leukocytes locally synthesize C3/fB/fD/C5 and the elicited C3a/C5a signal through C3aR/C5aR on the same cells to amplify this synthesis. To determine whether ECs locally synthesize AP complement components, we added IL-1/IFN-γ/TNF-α to HUVEC, 1 hr after which we quantified C3 and fB transcripts by qPCR. […] To test whether leukocytes that are recruited to sites of EC injury locally synthesize AP components and C5a similarly feeds back in them to amplify local complement production, we stimulated Raji, Jurkat, U937 cells, primary mΦs, B cells, and DCs with 10 nM C5a. This documented induction of AP and C5 gene transcription by qPCR."}, "[7]": {"tested_on": "HUVEC", "assay": "Complement mRNA transcripts in HUVEC by qPCR", "type": "cell-based", "settings": "added C3a or C5a", "method": "FIG. 33 illustrates charts showing qRT-PCR analysis of C3, factor B and factor D transcripts from HUVEC under hypoxia. A) HUVEC treated with TNF-α, IL-1, and IFN-γ. Blue bars represent samples after treatment. B-C) HUVEC stimulated with C3a (10 ng/ml for 2 hr) or C5a (10 ng/ml for 30 min) Blue bars represent control without C3a/C5a stimulation while red bars represent samples after stimulation. D) HUVEC incubated for 1 hr with FCCP+IAA. Blue bars represent control without hypoxia treatment while yellow bars represent two samples after hypoxia treatment.\nWe next conversely assessed how transducing C3aR/C5aR signals into ECs affects endogenous EC complement production and whether it is connected with “classical” EC responses. We incubated HUVEC with 1) inflammatory cytokines, 2) the mitochondrial uncoupler protonophore carbonyl cyanide p-(trifluoromethoxy)phenylhydrazone (FCCP)+iodoacetate (IAA) (which mimics hypoxia), or 3) C3a or C5a, after which we assayed complement mRNA transcripts by qPCR. […]\nECs and leukocytes locally synthesize C3/fB/fD/C5 and the elicited C3a/C5a signal through C3aR/C5aR on the same cells to amplify this synthesis. To determine whether ECs locally synthesize AP complement components, we added IL-1/IFN-γ/TNF-α to HUVEC, 1 hr after which we quantified C3 and fB transcripts by qPCR. […]"}, "[8]": {"tested_on": "HUVEC", "assay": "Cell cycle assay of serum starved HUVEC", "type": "cell-based", "settings": "identical to adding VEGF-A", "method": "as §1\nBecause the disruptive effect of C3aR/C5aR antagonism on VEGF growth induction could be a consequence of the requirement of autocrine C3aR/C5aR signaling for EC viability, we performed cell cycle assays. […] These findings that autocrine C3aR/C5aR signaling not only prevents EC apoptosis but drives EC growth point to a bidirectional signaling mechanism wherein C3aR/C5aR GPCR signaling transactivates to VEGFR2 signaling and vice versa."}}}
{"molecule": "B1", "values": [{"measurement": "mRNA transcription of MCP-1/IL-8, IL-1β/IL-6 and GM-CSF", "setting": "[1]", "result": "induced"}, {"measurement": "cell cycle transition after adding C5a", "setting": "[2]", "result": "transition from G0 into G2"}, {"measurement": "cell cycle transition after adding C5a", "setting": "[3]", "result": "transition from G0 into G2"}, {"measurement": "proliferation of NIH-3T3 cells", "setting": "[4]", "result": "induced proliferation"}, {"measurement": "VEGFR2 Y1054/1059 phosphorylation", "setting": "[5]", "result": "increased"}, {"measurement": "AP and C5 gene transcription", "setting": "[6]", "result": "induction"}, {"measurement": "production of AP components by ECs", "setting": "[7]", "result": "more AP components"}, {"measurement": "transcription of C3", "setting": "[7]", "result": "increased"}, {"measurement": "cell cycle transition after adding C5a", "setting": "[8]", "result": "transition from G0 into G2"}]}
